# Measurements taken from paper PMC5018360 (2017).
# T1: MCL-1 (Mus musculus, UniProt P97287)
# T1 chain: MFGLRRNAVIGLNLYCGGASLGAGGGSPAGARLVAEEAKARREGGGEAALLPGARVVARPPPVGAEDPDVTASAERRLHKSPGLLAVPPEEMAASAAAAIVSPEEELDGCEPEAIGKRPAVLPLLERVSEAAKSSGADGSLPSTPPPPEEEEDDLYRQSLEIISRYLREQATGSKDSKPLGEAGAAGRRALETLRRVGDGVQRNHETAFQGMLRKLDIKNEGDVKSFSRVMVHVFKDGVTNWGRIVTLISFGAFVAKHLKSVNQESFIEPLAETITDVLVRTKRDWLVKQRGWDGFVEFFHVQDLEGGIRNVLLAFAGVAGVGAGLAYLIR
# Target: T1, MCL-1
# Test: surface plasmon resonance
row,Binder,Kd
1,EDIIRNIARHLAQVGDSMDRSI [BID BH3 peptide],134 nM
2,GRLAEVCTVLLRLGDELEQIRPSVY [BOK BH3 peptide BH3],3440 nM
